Measured values from article PMC3904721, “The BEL1-like family of transcription factors in potato”.
Blank lines part the entries; values can stand above or below the molecule they belong to.

How the values were obtained:
[1] = target: NTH1 (tobacco); assay: two-hybrid; Matchmaker system (Clontech), yeast strain pJ69-2A; StBELs in pACT-AD (GAL4 activation domain), KNOX proteins in pBridge (GAL4-binding domain); co-transformation, selection on -Leu/-Trp/-His/-Ade; lacZ induction quantified by β-galactosidase assay (Miller units), three replicate samples
[2] = target: POTATO HOMEOBOX1 (POTH1) (potato); assay: as above
[3] = target: T1, StBEL5-GST;POTH1-GST (Solanum tuberosum (potato);Solanum …, UniProt Q8LLE4;P93588 1-688;1-345, |); assay: EMSA; 2 mM Mg2+; 20 mM HEPES pH 7.5, 50 mM KCl, 2 mM MgCl2, 0.5 mM EDTA, 1 mM DTT, 10% glycerol, 0.5% Triton X-100, 20 ng/ul BSA, 50 ng/ul poly(dI-dC), 20 ul, on ice 60 min; 10; conditions: protein: recombinant;recombinant; tags: C-terminal GST;C-terminal GST; copies: 1;1; label: 3' biotin; blunt
T1 sequence 1: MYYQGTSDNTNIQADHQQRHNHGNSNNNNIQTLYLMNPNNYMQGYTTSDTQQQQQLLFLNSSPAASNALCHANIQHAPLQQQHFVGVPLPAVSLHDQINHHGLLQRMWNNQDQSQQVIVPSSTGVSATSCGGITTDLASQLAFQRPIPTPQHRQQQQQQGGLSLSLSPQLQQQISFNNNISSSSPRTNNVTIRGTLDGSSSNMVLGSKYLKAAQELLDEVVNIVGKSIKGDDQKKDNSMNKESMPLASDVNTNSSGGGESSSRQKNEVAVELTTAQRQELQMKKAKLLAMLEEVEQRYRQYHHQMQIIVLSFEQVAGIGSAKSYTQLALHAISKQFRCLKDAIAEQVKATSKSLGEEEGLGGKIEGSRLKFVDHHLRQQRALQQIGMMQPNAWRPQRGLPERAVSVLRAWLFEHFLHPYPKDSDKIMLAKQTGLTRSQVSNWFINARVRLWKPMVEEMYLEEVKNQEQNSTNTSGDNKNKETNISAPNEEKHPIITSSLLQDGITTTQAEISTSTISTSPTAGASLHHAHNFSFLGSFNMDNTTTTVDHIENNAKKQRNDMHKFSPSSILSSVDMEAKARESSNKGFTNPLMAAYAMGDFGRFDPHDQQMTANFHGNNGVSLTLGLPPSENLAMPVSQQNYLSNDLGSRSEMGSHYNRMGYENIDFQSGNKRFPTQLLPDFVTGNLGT
T1 sequence 2: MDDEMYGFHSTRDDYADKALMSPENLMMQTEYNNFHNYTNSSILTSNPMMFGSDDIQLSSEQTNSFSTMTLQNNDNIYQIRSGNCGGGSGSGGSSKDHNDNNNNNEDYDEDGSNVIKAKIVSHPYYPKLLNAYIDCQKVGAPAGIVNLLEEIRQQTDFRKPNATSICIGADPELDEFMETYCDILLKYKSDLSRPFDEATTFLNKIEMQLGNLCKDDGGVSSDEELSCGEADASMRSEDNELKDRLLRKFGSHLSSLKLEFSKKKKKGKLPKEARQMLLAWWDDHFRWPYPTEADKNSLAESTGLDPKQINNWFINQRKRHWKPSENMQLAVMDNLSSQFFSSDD

beta-galactosidase activity [1]: 58 Miller units
Molecule: StBEL6 (natural protein)

beta-galactosidase activity [1]: 233 units
Molecule: StBEL13 (from UniProt M1AMS7 1-738) (natural protein)

beta-galactosidase activity [1]: 25 Miller units
Molecule: StBEL31 (from UniProt M0ZWL8 1-423) (natural protein)

beta-galactosidase activity [2]: 274 units
Molecule: StBEL33 (from UniProt M1C8Y5 1-505) (natural protein)

B1: StBEL34 bait (BEL34S/BEL34A) (dsDNA)
DNA 1: CCTTTCAATAAGATTATTGACGGTGACAATACTCGCCGTCAAA
DNA 2: TTTGACGGCGAGTATTGTCACCGTCAATAATCTTATTGAAAGG
binding result [3]: binds
